Data as given in patent US20130040894A1, “INHIBITION OR ACTIVATION OF SERINE/THREONINE ULK3 KINASE ACTIVITY” (TALLINN UNIVERSITY OF TECHNOLOGY, priority 2009, published 2013).

Assays:
[1] = tested on: GLI-dependent firefly luciferase activity in Shh-LIGHT2 cells; assay: GLI-dependent luciferase assay in Shh-L2 cells; assay type: cell-based, mouse; settings: for enhancement of transcriptional activity of overexpressed GLI1: cotransfected with GLI1, Shh-L2 cells; for enhancement of transcriptional activity of overexpressed GLI2: cotransfected with GLI2, Shh-L2 cells
Method: Cells were transfected by the expression constructs or respective empty vectors using Polyethylenimine transfection agent (PEI) (Inbio) and as described in [28]. We used 0.25 μg of cDNA per 1 cm^2 of plate surface area for transfections. After 3 h of transfection HEK293, NIH3T3 and Cos1 cells were propagated in the normal growth medium for 48 h. Prior the further analysis the cells were washed twice with PBS. Post-transfectional Shh-L2 cells were grown in the normal growth medium for 24 h and for additional 24 h in the Light medium containing 0.25% FBS, washed once with PBS, lysed in Passive Lysis Buffer (Promega, Madison Wis., USA) (70 ul per well of 24-well plate format) and subjected to luciferase assay.
Luciferase assay was performed as previously described. Briefly, firefly luciferase activity of 12 μl of the Shh-L2 cells lysate was measured using Luciferase Assay Kit (Promega) and galactosidase activity was quantified using Galacto-LightPlus kit (Tropix, Bedford Mass., USA) according to the manufacturer's instructions. Chemiluminicence was measured using Ascent FL Fluoroscan (Thermo Electron Corporation, Waltham Mass., USA) according to the manufacturer's instructions.
We cotransfected the constructs together with GLI-expressing plasmids (or respective empty vector) into Shh-L2 cells and assessed their effect on GLI-dependent firefly luciferase activity. The obtained data was normalized with β-galactosidase values. […] It was able to stimulate the luciferase activity 3.8 times and enhanced the transcriptional activity of over expressed GLI1 and GLI2 approximately 2 and 3.2 times, respectively. The potency of STK36 in the assay was much lower.
In order to examine if the kinase activity of ULK3 is required for the luciferase reporter activation we tested the supposed kinase-deficient variants of ULK3, ULK3(K44R) and ULK3(K139R) in the same assay. […] We also tested the effect of ULK3 and the mutants on the luciferase reporter when the SHH pathway was activated by cotransfection with pShhN (plasmid expressing biologically active part of SHH).

[2] = tested on: ULK3; assay: In vitro kinase assay, autophosphorylation; assay type: biochemical, human; settings: FLAG-tagged protein immunopurified from HEK293 cells, γ-P32-ATP
Method: HEK293 cells were transfected with 13.5 μg of FLAG-tagged constructs expressed GLI1, GLI2, GLI3, ULK3, ULK3(K44R), ULK3(K139R) or FLAG-CMV-4 empty vector on 10 cm plates. The cells were lysed with 0.5 ml of Lysis Buffer (50 mM Tris HCl, pH 7.4, 150 mM NaCl, 1 mM EDTA, 1% Triton X-100) containing protease inhibitor cocktail (PIC) (Roche Applied Science). The lysates were centrifuged for 15 min at 4° C. and 15000 g, and the supernatants were used for immunoprecipitation (IP). IP was performed using anti-FLAG-M2 affinity gel (Sigma-Aldrich) in batch format according to the manufacture's instructions. Immune complexes were washed three times with 500 μl of Kinase Buffer (KB) (50 mM HEPES, pH 7.4, 20 mM MgCl2, 25 μM ATP) and resuspended in 12.5 μl of KB. One fifth of the immuno-complexes was subjected to WB and the rest was used for the kinase assay.
Kinase reactions were carried out in KB in a total volume of 20 μl of in the presence of 1 μCi of [γ-^32P]ATP per reaction. We used 1 μl of the immunoprecipitated ULK3, ULK3(K44R) or ULK3(K139R) mixed with 5 μl of the GLI-M2 immunocomplexes or 5 μl of bacterially expressed and purified His-GLI1 fragments. Kinase reactions were held at 30° C. for 30 min and terminated by adding of 5 μl of 4× Laemmli Sample Buffer. Proteins were resolved by SDS-PAGE. The gel was dried at 80° C. for 2 h, and autoradiography was performed using Bio-Rad Personal Molecular Imager FX.
To test if ULK3 has an autophosphorylation activity, we expressed FLAG-tagged wild-type ULK3 and mutants ULK3(K44R) and ULK3(K139R) in HEK293 cells, immunopurified and subjected to in vitro kinase assay in the presence of γ-P^32-ATP.

[3] = tested on: GFP-tagged GLI2 localization in NIH3T3 cells; assay: Immunofluorescence assay, subcellular localization of GFP-tagged GLI2; assay type: cell-based, mouse; settings: coexpressed with GFP-tagged GLI2 in NIH3T3 cells
Method: NIH3T3 cells were transfected with GLI1GFP and FLAG-tagged expression constructs for ULK3 or ULK3(K139R) in ratio 1:1 on 8-chamber slides (Falcon, BD Biosciences, San Jose Calif., USA). The cells were fixed with 4% paraformaldehyde and washed three times for 5 min with Stain Wash Medium (SWM) (0.5% BSA and 0.01% NaN3 in PBS). Subsequent permeabilization of cells was performed at RT by 10-min incubation in. PBS supplemented with 0.5% Triton X-100. Afterwards, the cells were washed three times for 5 min with SWM, blocked for 30 min in PBS containing 5% bovine serum albumin (BSA), and incubated with mouse monoclonal M2-anti-FLAG antibody (diluted 1:1000 in SWM) for 1 h at RT with gentle agitation. […] GLI1GFP protein localization was assessed in at least 200 FLAG-positive cells under a fluorescent microscope Olympus BX61 with UPLan SApo 40× objective, and the experiment was repeated three times. […]
Next we examined if overexpression of ULK3 kinase influences the subcellular localization of GLI1 and GLI2 proteins. […] Subcellular localization of GLI1 and GLI2 was determined, and average values were calculated from three independent experiments. […] Overexpressed GLI1GFP was detected both in cytoplasm and nucleus (FIG. 3A). […]

[4] = tested on: GLI1GFP localization in NIH3T3 cells; assay: Immunofluorescence assay, subcellular localization of GFP-tagged GLI1; assay type: cell-based, mouse; settings: coexpressed with GLI1GFP in NIH3T3 cells
Method: NIH3T3 cells were transfected with GLI1GFP and FLAG-tagged expression constructs for ULK3 or ULK3(K139R) in ratio 1:1 on 8-chamber slides (Falcon, BD Biosciences, San Jose Calif., USA). The cells were fixed with 4% paraformaldehyde and washed three times for 5 min with Stain Wash Medium (SWM) (0.5% BSA and 0.01% NaN3 in PBS). Subsequent permeabilization of cells was performed at RT by 10-min incubation in. PBS supplemented with 0.5% Triton X-100. Afterwards, the cells were washed three times for 5 min with SWM, blocked for 30 min in PBS containing 5% bovine serum albumin (BSA), and incubated with mouse monoclonal M2-anti-FLAG antibody (diluted 1:1000 in SWM) for 1 h at RT with gentle agitation. After three washes of 10 min with SWM, the cells were incubated for 30 min with secondary antibody Alexa-Fluor 568 (Invitrogen) (diluted 1:500 in SWM) mixed with nuclear stain Hoechst 33342 (diluted 1:100). Cells were washed twice with SWM and mounted with Mowiol 4-88 (Sigma-Aldrich). GLI1GFP protein localization was assessed in at least 200 FLAG-positive cells under a fluorescent microscope Olympus BX61 with UPLan SApo 40× objective, and the experiment was repeated three times. Confocal images were obtained with a Zeiss LSM-510 META confocal laser-scanning microscope (Carl Zeiss MicroImaging GmbH, Germany) equipped with Plan-Apochromat 63×/1.4 oil immersion objective.
Next we examined if overexpression of ULK3 kinase influences the subcellular localization of GLI1 and GLI2 proteins. […] FLAG-tagged ULK3 and ULK3(K139R) (or respective empty vector) were coexpressed with GFP-tagged GLI1 and GLI2 in NIH3T3 cells. Subcellular localization of GLI1 and GLI2 was determined, and average values were calculated from three independent experiments. ULK3 and its mutant remained almost completely cytoplasmic. GFP-tagged GLI2 localized predominantly in the nucleus and its localization was not altered by ULK3 or ULK3(K139R) (data not shown). Overexpressed GLI1GFP was detected both in cytoplasm and nucleus (FIG. 3A). […] Under the influence of ULK3 localization of GLI1 was shifted.

Molecule | enhancement of transcriptional activity of overexpressed GLI1 [1] | enhancement of transcriptional activity of overexpressed GLI2 [1] | induction of luciferase activity with activated SHH pathway ([1]; cotransfection with pShhN, Shh-L2 cells) | stimulation of GLI-dependent luciferase activity ([1]; kinase construct alone, Shh-L2 cells, normalized with β-galactosidase) [times] | autophosphorylation activity [2] | influence on GLI2 subcellular localization [3] | cells that retained GLI1 in the cytoplasm ([4]; average of three experiments) [%] | cells with GLI1 mostly in the nucleus ([4]; average of three experiments) [%] | cells with uniform distribution of GLI1 ([4]; average of three experiments) [%] | influence on GLI1 subcellular localization [4]
ULK3: human serine/threonine kinase, 472 amino acids (SEQ ID NO: 1), overexpressed from cloned cDNA or immunopurified FLAG-tagged (protein, listed as Homo sapiens, PEPTIDE (1)..(472) ULK3) MAGPGWGPPRLDGFILTERLGSGTYATVYKAYAKKDTREVVAIKCVAKKSLNKASVENLLTEIEILKGIRHPHIVQLKDFQWDSDNIYLIMEFCAGGDLSRFIHTRRILPEKVARVFMQQLASALQFLHERNISHLDLKPQNILLSSLEKPHLKLADFGFAQHMSPWDEKHVLRGSPLYMAPEMVCQRQYDARVDLWSMGVILYEALFGQPPFASRSFSELEEKIRSNRVIELPLRPLLSRDCRDLLQRLLERDPSRRISFQDFFAHPWVDLEHMPSGESLGRATALVVQAVKKDQEGDSAAALSLYCKALDFFVPALHYEVDAQRKEAIKAKVGQYVSRAEELKAIVSSSNQALLRQGTSARDLLREMARDKPRLLAALEVASAAMAKEEAAGGEQDALDLYQHSLGELLLLLAAEPPGRRRELLHTEVQNLMARAEYLKEQVKMRESRWEADTLDKEGLSESVRSSCTLQ | approximately 2 times | ~3.2 times | approximately 4.1 times | 3.8 | strong autophosphorylation activity | not altered | 2 | 70 | 25 | 
ULK3(K139R): kinase-deficient ULK3 mutant with Lysine at position 139 mutated to Arginine (SEQ ID NO:7) (protein, MUTAGEN (1)..(472) mutated ULK3 protein ULK3 (K139R)) MAGPGWGPPRLDGFILTERLGSGTYATVYKAYAKKDTREVVAIKCVAKKSLNKASVENLLTEIEILKGIRHPHIVQLKDFQWDSDNIYLIMEFCAGGDLSRFIHTRRILPEKVARVFMQQLASALQFLHERNISHLDLRPQNILLSSLEKPHLKLADFGFAQHMSPWDEKHVLRGSPLYMAPEMVCQRQYDARVDLWSMGVILYEALFGQPPFASRSFSELEEKIRSNRVIELPLRPLLSRDCRDLLQRLLERDPSRRISFQDFFAHPWVDLEHMPSGESLGRATALVVQAVKKDQEGDSAAALSLYCKALDFFVPALHYEVDAQRKEAIKAKVGQYVSRAEELKAIVSSSNQALLRQGTSARDLLREMARDKPRLLAALEVASAAMAKEEAAGGEQDALDLYQHSLGELLLLLAAEPPGRRRELLHTEVQNLMARAEYLKEQVKMRESRWEADTLDKEGLSESVRSSCTLQ | neither of the mutants had an effect | completely inactive |  |  | almost completely absent | not altered |  |  |  | did not influence
